For 116 sequences, protein stability index results are on record in the supplement of paper PMC10724198.

± gives the standard deviation of the averaged measurements.
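Also: PSI is a weighted mean of sequencing reads over stability bins, variants kept only with over 10 reads, mCherry proximal and sfGFP distal, peptide attached via GGGS linker.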

The data set concerns Saccharomyces cerevisiae. The experiment in a line: protein stability index of tFT-peptide fusion (C-terminal peptide) (PSI (0-1 scale)); higher = more stable (slower turnover). The conditions noted are these: genetic background: wild type; temperature: 30 C.
Sequence HLSCVSVSVRGS showed a protein stability index of 0.629 ± 0.015. As to HLSNSCLHGVSG, the protein stability index amounted to 0.6484 ± 0.00096. HLSPPLPPAPTS showed a protein stability index of 0.7022 ± 0.0063. HLSPPPLPPLTS had a protein stability index of 0.696 ± 0.037. For HLVLIHPTQTLN, the protein stability index is 0.634 ± 0.045. The result for HMQCVFRSTHHR reads 0.585 ± 0.054. As for HNGRAARAYLCW, the figure is 0.65 ± 0.046; as for HNRADKLQTTIE, 0.69 ± 0.033. HPARPRPRLALS: the protein stability index amounted to 0.666 ± 0.043. In turn, HPGPFSTTWHPT returned a protein stability index of 0.743 ± 0.068. HPHRSAIIAGNH came in with a protein stability index of 0.72 ± 0.0083. For HPLLTPTPHKPD, the protein stability index amounted to 0.699 ± 0.11. Consider HPLPPPLLPSPA, for which the protein stability index stood at 0.659 ± 0.096. Take HPLVASRLSPFP: the protein stability index was found to be 0.761 ± 0.07. HPPHLSTPPYPP returned a protein stability index of 0.722 ± 0.047.

Consider HPPLPRPPPVPH, for which the protein stability index stood at 0.683 ± 0.019. Regarding HPPPDPLPSRPS, the protein stability index is 0.765 ± 0.093.

For the sequence HPPPHPPFPPRF, the protein stability index is 0.73 ± 0.016. HPPPLVPSPSTQ registered a protein stability index of 0.749 ± 0.067. Sequence HPPSPPPPAPSC showed a protein stability index of 0.738 ± 0.02. In turn, HPRLLLYLPTSS came in with a protein stability index of 0.726 ± 0.1. HPRRRPPPPSFP returned a protein stability index of 0.611 ± 0.023.

In turn, HPSEPCKSQILL came in with a protein stability index of 0.712 ± 0.027. As for HPSLSDLIVLCR, the figure is 0.51 ± 0.01; as for HPTLPLLSHPTS, 0.798 ± 0.14. HPTSPDPLVTPL showed a protein stability index of 0.737 ± 0.068. For the sequence HPYTPLLSRLSP, the protein stability index was 0.708 ± 0.0077. In the case of HQFRPYPLFTAR, the protein stability index is 0.733 ± 0.013.

Regarding HQLHLMRDSIRN, the protein stability index stood at 0.716 ± 0.021.

Consider HRCVQFMNWVAF, for which the protein stability index was determined as 0.735 ± 0.045. Take HRDRPYTPLSRF: the protein stability index came to 0.722 ± 0.13. The result for HRKKTKNVTHVK reads 0.6485 ± 0.0062; that for HRNPNLPFPPPL, 0.74 ± 0.069; that for HRTSSCESSPLA, 0.737 ± 0.076. In turn, HSAVRMGTRGRG gave a protein stability index of 0.715 ± 0.049. As for HSCPVCVGWNYS, the figure is 0.654 ± 0.047. For HSDRPSPTRPQP, the protein stability index turned out to be 0.6431 ± 0.0029. In turn, HSHAGIGPVVTR came in with a protein stability index of 0.672 ± 0.0077.

HSHKHTREDTVL returned a protein stability index of 0.657 ± 0.036. HSPASLPHLSGK displayed a protein stability index of 0.728 ± 0.063.

HSPPPLPLPTHP registered a protein stability index of 0.719 ± 0.077. In the case of HSSALFSSRLRF, the protein stability index came to 0.7223 ± 0.0036. As for HVAETRLRDHGW, the protein stability index amounted to 0.714. As to HVGEVERGGMGG, the protein stability index was determined as 0.7157 ± 0.0021.

HVPGGRADMTRS showed a protein stability index of 0.706 ± 0.0097. HVRARLVVHQRA came in with a protein stability index of 0.631 ± 0.047. HVRSPLRRVEKF returned a protein stability index of 0.6988 ± 0.006. Consider HVSSKMEWGNRD, for which the protein stability index amounted to 0.763 ± 0.066. The sequence HVTGFVQRYLCH yielded a protein stability index of 0.711 ± 0.092.

The sequence HWPSGGGGPASH gave a protein stability index of 0.753 ± 0.037.

Sequence HWRCASLTLSAG registered a protein stability index of 0.8 ± 0.02. Sequence HYYYPSPPSSRH returned a protein stability index of 0.621 ± 0.042. The result for IACSLSSFSPVW reads 0.687 ± 0.031; that for IAKAVCESLCLQ, 0.7146 ± 0.0063; that for IALPPPGILDSA, 0.683 ± 0.16. As for IALPPPLLPPSL, the figure is 0.706 ± 0.051. On to IALTSCVPDLSF, for which the protein stability index worked out at 0.6911 ± 0.0037. Sequence IAQVDLPDRMKT had a protein stability index of 0.6937 ± 0.0061. For IARYLGRYERNV, the protein stability index is 0.687 ± 0.042. The result for IAVHLSVSSRSW reads 0.616 ± 0.035. The result for ICRGGLWGVCVG reads 0.581 ± 0.0097; that for ICRGGYELLELG, 0.68 ± 0.026; that for ICVAVESRVSRG, 0.628 ± 0.046. As for ICYGIHYAQRGS, the figure is 0.646 ± 0.069; as for ICYGLHVPARRR, 0.63303 ± 0.00013; as for IDDITMYRKKYR, 0.66 ± 0.047. The sequence IDKGENTGKHRL yielded a protein stability index of 0.673 ± 0.027.

In turn, IDLISENDNAVG showed a protein stability index of 0.709 ± 0.021. Sequence IDMGEQTGKMIN returned a protein stability index of 0.72 ± 0.012.

Take IDSCFKEVAYGK: the protein stability index came out at 0.625 ± 0.014. As for IEDEHLEDAPYG, the figure is 0.678 ± 0.048; as for IEETKDYTRKRQ, 0.6484 ± 0.0034. As for IEGEVRKIGNPT, the protein stability index worked out at 0.681 ± 0.086. As for IEHYPVSSPKMR, the figure is 0.623 ± 0.079; as for IERCGIVKEVKG, 0.74 ± 0.012; as for IFINAGGYTHTN, 0.726 ± 0.067. The sequence IFSPHRPAVALV had a protein stability index of 0.626 ± 0.073. As for IFWGFSFRGWAC, the protein stability index is 0.656 ± 0.0067. As for IFWLFLPSVPFL, the figure is 0.702 ± 0.12; as for IGARLMVGASRK, 0.775 ± 0.16. As for IGFGPVSCARLF, the protein stability index amounted to 0.679 ± 0.11. Take IGGLSLGESIGG: the protein stability index stood at 0.689 ± 0.02. As for IGLTVICHFMNV, the figure is 0.576 ± 0.05. In turn, IGNKLSKMIDTS gave a protein stability index of 0.665 ± 0.053.

In turn, IGQCYLRHRGMS had a protein stability index of 0.5544 ± 0.0053.

As for IGRRSRALKITE, the protein stability index turned out to be 0.629 ± 0.03.

Sequence IGSRRMDADERV displayed a protein stability index of 0.691 ± 0.026. The result for IGVSDSGMWMGN reads 0.694 ± 0.026; that for IICSKLHSPLVV, 0.509 ± 0.031. As for IIVGFFGLLLGL, the protein stability index turned out to be 0.5413 ± 0.0048. IIVWVGAGLWGV registered a protein stability index of 0.594 ± 0.011. The result for IKCCIGCSSICG reads 0.692 ± 0.042; that for IKFVRLEGLCPL, 0.624 ± 0.019; that for IKGVEKDKKTQK, 0.747 ± 0.045.

IKKDSRQRKRDE showed a protein stability index of 0.648 ± 0.0084. Turning to IKKKKKKENKRR, the protein stability index stood at 0.741 ± 0.014.

For IKLCRSTVVTGV, the protein stability index amounted to 0.592 ± 0.013.

Consider IKNKDLISVIII, for which the protein stability index amounted to 0.646 ± 0.042. As to IKRKQRKRKSEK, the protein stability index amounted to 0.86 ± 0.14.

IKSKKKKKRNKR: the protein stability index came out at 0.638 ± 0.032. The sequence IKSQRGIHLELR came in with a protein stability index of 0.634 ± 0.028.

ILCQLRKFKFQN gave a protein stability index of 0.58 ± 0.013. Turning to ILEGGGVLAWFG, the protein stability index is 0.7253 ± 0.0017. The result for ILFIKQKYLIKK reads 0.6878 ± 0.003; that for ILGGVSPSAFVI, 0.664 ± 0.022. Consider ILGIESLVAGLL, for which the protein stability index turned out to be 0.697 ± 0.062. In the case of ILGQLHKHFKTS, the protein stability index came out at 0.546 ± 0.046.

Regarding ILHGRSGLRELL, the protein stability index amounted to 0.688 ± 0.023. In turn, ILNKYYEQSMRT came in with a protein stability index of 0.68 ± 0.011.

Consider ILPPPPPPPPPF, for which the protein stability index stood at 0.714 ± 0.039. ILRSVIFMDACV had a protein stability index of 0.629 ± 0.018. Consider ILSMSQPHPILS, for which the protein stability index was 0.6175 ± 0.0042. ILTDFELLPVYR showed a protein stability index of 0.731 ± 0.063.

ILVGKIEGIVQE came in with a protein stability index of 0.662 ± 0.025. As for INCDIIHRRKKG, the figure is 0.6462 ± 0.0042; as for INGYRYHTVNIK, 0.688 ± 0.03.
